The source of these data is US20240034762A1 (YALE UNIVERSITY, published 2024).

No end group written: not given here.

T1: soluble extracellular domain of human α-Klotho (aa 1-980) fused to a 6xHis tag (human, UniProt Q9UEF7 34-980)
T1 construct: Secreted from HEK293 EBNA cells; also called sKLA; soluble α-Klotho
T1 sequence: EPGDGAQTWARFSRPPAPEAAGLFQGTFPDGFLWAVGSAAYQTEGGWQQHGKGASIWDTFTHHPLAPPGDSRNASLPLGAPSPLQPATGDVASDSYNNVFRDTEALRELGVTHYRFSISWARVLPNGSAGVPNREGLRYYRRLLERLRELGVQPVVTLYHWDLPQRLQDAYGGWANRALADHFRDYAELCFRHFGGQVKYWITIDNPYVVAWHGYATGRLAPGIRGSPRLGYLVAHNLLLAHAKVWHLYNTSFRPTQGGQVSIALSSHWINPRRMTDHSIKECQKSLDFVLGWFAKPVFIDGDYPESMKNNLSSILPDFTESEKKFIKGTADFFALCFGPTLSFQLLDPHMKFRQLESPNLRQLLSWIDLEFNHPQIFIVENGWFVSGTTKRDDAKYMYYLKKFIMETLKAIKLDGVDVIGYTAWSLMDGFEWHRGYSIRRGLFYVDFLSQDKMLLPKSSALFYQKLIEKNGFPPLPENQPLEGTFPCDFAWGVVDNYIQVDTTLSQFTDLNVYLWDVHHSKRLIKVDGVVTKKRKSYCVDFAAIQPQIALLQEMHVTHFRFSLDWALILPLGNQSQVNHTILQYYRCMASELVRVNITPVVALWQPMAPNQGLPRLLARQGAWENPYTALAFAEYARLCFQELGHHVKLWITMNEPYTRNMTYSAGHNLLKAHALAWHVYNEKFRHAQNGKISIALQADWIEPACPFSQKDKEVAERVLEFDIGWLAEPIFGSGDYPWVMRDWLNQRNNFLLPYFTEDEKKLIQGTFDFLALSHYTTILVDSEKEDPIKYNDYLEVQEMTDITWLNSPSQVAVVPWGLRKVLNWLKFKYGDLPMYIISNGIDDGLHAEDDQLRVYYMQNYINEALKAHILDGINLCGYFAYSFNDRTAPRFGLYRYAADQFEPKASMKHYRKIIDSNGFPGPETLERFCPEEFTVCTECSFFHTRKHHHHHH

B1: FLAG-tagged human FGF23 D188A mutant expressed in Expi293F cells (ligand)
chain: DYKDDDDKYPNASPLLGSSWGGLIHLYTATARNSYHLQIHKNGHVDGAPHQTIYSALMIRSEDAGFVVITGVMSRRYLCMDFRGNIFGSHYFDPENCRFQHQTLENGYDVYHSPQYHFLVSLGAAKAAFLPGMNPPPYSQFLSRRNEIPLIHFNTPIPRQHTQSAEDDSERAPLNVLKPRARMTPAPASCSQELPSAEDNSPMASDPLGVVRGGRVNTHAGGTGPEGCRPFAKFI
B2: FLAG-tagged human FGF23 C206S/C244S/D188A mutant expressed in Expi293F cells (ligand)
chain: DYKDDDDKYPNASPLLGSSWGGLIHLYTATARNSYHLQIHKNGHVDGAPHQTIYSALMIRSEDAGFVVITGVMSRRYLCMDFRGNIFGSHYFDPENCRFQHQTLENGYDVYHSPQYHFLVSLGAAKAAFLPGMNPPPYSQFLSRRNEIPLIHFNTPIPRQHTQSAEDDSERAPLNVLKPRARMTPAPASSSQELPSAEDNSPMASDPLGVVRGGRVNTHAGGTGPEGSRPFAKFI
notes: also called FGF23-CS D188A
B3: FLAG-tagged human FGF23 C206S/C244S mutant expressed in Expi293F cells (ligand)
chain: DYKDDDDKYPNASPLLGSSWGGLIHLYTATARNSYHLQIHKNGHVDGAPHQTIYSALMIRSEDAGFVVITGVMSRRYLCMDFRGNIFGSHYFDPENCRFQHQTLENGYDVYHSPQYHFLVSLGAAKAAFLPGMNPPPYSQFLSRRNEIPLIHFNTPIPRQHTQSAEDDSERDPLNVLKPRARMTPAPASSSQELPSAEDNSPMASDPLGVVRGGRVNTHAGGTGPEGSRPFAKFI
modifications: O-linked glycosylation (sites not given)
notes: also called FGF23-CS; mFGF23-CS
B4: FLAG-tagged human FGF23 (aa 25-251) expressed in Expi293F cells (ligand)
chain: DYKDDDDKYPNASPLLGSSWGGLIHLYTATARNSYHLQIHKNGHVDGAPHQTIYSALMIRSEDAGFVVITGVMSRRYLCMDFRGNIFGSHYFDPENCRFQHQTLENGYDVYHSPQYHFLVSLGAAKAAFLPGMNPPPYSQFLSRRNEIPLIHFNTPIPRQHTQSAEDDSERDPLNVLKPRARMTPAPASCSQELPSAEDNSPMASDPLGVVRGGRVNTHAGGTGPEGCRPFAKFI
modifications: O-linked glycosylation (sites not given); Cys206-Cys244 disulfide bridge
notes: also called FGF23-WT; mFGF23-WT
B5: GST fusion of repeat 2 (R2) of the human FGF23 C-terminal tail (other)
chain: SAEDNSPMASDPLGVVRGGRVNTHAGGTGPEG
modifications: not fully specified; also: fused to glutathione S-transferase (pGEX4T1), vector linker residues not given here
notes: The plasmid limits are used here; also called GST-R2; not shown: glutathione S-transferase encoded by the pGEX4T1 vector (GE Healthcare)
B6: GST fusion of repeat 1 (R1, aa 180-205) of the human FGF23 C-terminal tail (other)
chain: SAEDDSERDPLNVLKPRARMTPAPAS
modifications: also: GST fusion partner (recombinant, not part of given chain)
notes: Expressed in E. coli; also called GST-R1; not shown: glutathione S-transferase encoded by the pGEX4T1 vector (GE Healthcare)
B7: GST fusion of the full-length C-terminal tail of human FGF23 (aa 180-251) (other)
chain: SAEDDSERDPLNVLKPRARMTPAPASCSQELPSAEDNSPMASDPLGVVRGGRVNTHAGGTGPEGCRPFAKFI
notes: Expressed in E. coli BL21-Gold (DE3); also called GST-FL; FL tail of FGF23; not shown: glutathione S-transferase encoded by the pGEX4T1 vector (GE Healthcare)

The target of the first assay is T1, soluble extracellular domain of human …. The assay can be described thus: BLI; FLAG-tagged FGF23 captured by anti-FLAG M2 on anti-mouse Fc sensors, sKLA 6.25-200 nM as analyte, 1:1 fit. As to the method: FIG. 10A: BLI sensorgrams of binding of FGF23-WT, FGF23-CS, FGF23 D188A, and FGF23-CS D188A to sKLA. Biosensors coated with anti-mouse-Fc antibody was used to immobilize anti-Flag antibody followed by capturing Flag-tagged FGF23-WT or FGF23-CS. Biosensors were then dipped into solutions containing a series of concentrations of sKLA (200, 100, 50, 25, 12.5, and 6.25 nM). The resulting sensorgrams were fitted with a 1:1 ligand:receptor binding model to calculate kinetic parameters and dissociation constants. FIGS. 10B-10C: HEK293 cells stably expressing FGFR1c together with α-Klotho were left unstimulated or stimulated with increasing concentrations of FGF23-WT or FGF23-CS mutant, as indicated, for 10 minutes at 37° C. Cell lysates were subjected to SDS-PAGE and analyzed for serine phosphorylation of FGFR1, tyrosine phosphorylation of FRS2 and for MAPK activation by immunoblotting with anti-FGFR1-pS, anti-pFRS2 and anti-pMAPK antibodies, respectively and with anti-MAPK as a control. FIG. 10D: Schematic diagram depicting the bivalency of the C-terminal tail of FGF23 binding to α-Klotho.
(§1) Kinetic parameters and dissociation constants of sKLA binding to the various forms of full length FGF23 or GST-fused C-terminal fragments of FGF23 were studied using Bio-Layer Interferometry (BLI). Octet RED96 system (Pall ForteBio) equipped with anti-mouse IgG Fc (AMC) biosensors was used to study interactions between α-Klotho and FLAG-tagged FGF23. Biosensor tips were loaded with anti-FLAG M2 antibody (Millipore Sigma) at 5 μg/ml for 2 min, washed in BLI buffer (25 mM HEPES, 150 mM NaCl, pH 7.5, 0.002% Tween-20, 1 mg/mL BSA) for 60 s, and then loaded with FLAG-tagged FGF23 at 5 μg/ml for 4 min. Alternatively, anti-GST biosensor tips were loaded with 5 ug/ml GST fused with various FGF23 C-terminal fragments for 15 s. Subsequently, ligand-loaded sensor tips were dipped into microplate wells containing different sKLA concentrations, ranging from 6.25 nM to 200 nM in 2-fold dilutions of BLI buffer. After each binding cycle the sensor tips were regenerated with 10 mM glycine (pH 1.5). The collected data were referenced using a parallel buffer control subtraction, and sensograms were fitted globally to a 1:1 Langmuir binding model using ForteBio Data Analysis 10.0 software provided by the manufacturer.
For orientation: BLI is a label-free optical method that tracks binding on a fibre tip over time.
Molecule B1 registered a Kd of 13 nM, a koff of 0.0036 s⁻¹ and a kon of 280000 M⁻¹ s⁻¹.
As for B2, binding was characterised by a dissociation constant (Kd) of 18 nM, the koff was determined as 0.0044 s⁻¹ and the on-rate (kon) worked out at 250000 M⁻¹ s⁻¹.
For B3 the same measures were 18 nM, 0.0042 s⁻¹ and 230000 M⁻¹ s⁻¹.
As to B4, the Kd turned out to be 14 nM, the off-rate constant (koff) is 0.0034 s⁻¹ and the kon came out at 260000 M⁻¹ s⁻¹.

The target is the same in the next assay. The assay can be described thus: BLI (Octet); GST fusion captured on anti-GST biosensor, sKLA in solution at 6.25-200 nM, 1:1 fit, mean ± S.D. of 3 experiments. How it is done:
as §1
To examine the significance of each of the two FGF23 repeats in α-Klotho binding and receptor activation, bio-layer interferometry (BLI) analyses was applied to measure the kinetic parameters and dissociation constants of each repeat alone or the entire C-terminal tail of FGF23 towards sKLA. To that end, GST-fusion proteins expressing either full length (FL) tail of FGF23 (amino acids […]), the first repeat R1 (amino acids S180-S205), or the second repeat R2 (amino acids […]) were produced in E. coli (FIG. 6) and immobilized on BLI sensors. sKLA was produced in HEK293 EBNA cells and used as an analyte in the BLI measurements (see elsewhere herein).
Molecule B5 came in with a dissociation constant Kd of 17 nM, a koff of 0.0034 s⁻¹ and a kon of 200000 M⁻¹ s⁻¹.
For B6 the same measures were 20 nM, 0.0041 s⁻¹ and 210000 M⁻¹ s⁻¹.
In the case of B7, binding was put at a Kd of 15 nM, the koff was found to be 0.0031 s⁻¹ and the on-rate (kon) was 210000 M⁻¹ s⁻¹.

As a reminder, the Kd is the equilibrium constant for the complex coming apart. A lower Kd goes with tighter binding. In general, koff refers to the first-order rate constant of dissociation. The low end stands for slow dissociation, the high end for fast dissociation. A word on the kon: it is the second-order rate constant of association.
